This test concerns the target human transferrin receptor 1 (human) (UniProt P02786). The test can be described thus: Carterra LSA biosensor, 25C; IgG captured on anti-IgG lawn, hTfR1 injected; 1:1 Langmuir fit.
Sequence of UniProt P02786 (P02786 89-760 limits assumed): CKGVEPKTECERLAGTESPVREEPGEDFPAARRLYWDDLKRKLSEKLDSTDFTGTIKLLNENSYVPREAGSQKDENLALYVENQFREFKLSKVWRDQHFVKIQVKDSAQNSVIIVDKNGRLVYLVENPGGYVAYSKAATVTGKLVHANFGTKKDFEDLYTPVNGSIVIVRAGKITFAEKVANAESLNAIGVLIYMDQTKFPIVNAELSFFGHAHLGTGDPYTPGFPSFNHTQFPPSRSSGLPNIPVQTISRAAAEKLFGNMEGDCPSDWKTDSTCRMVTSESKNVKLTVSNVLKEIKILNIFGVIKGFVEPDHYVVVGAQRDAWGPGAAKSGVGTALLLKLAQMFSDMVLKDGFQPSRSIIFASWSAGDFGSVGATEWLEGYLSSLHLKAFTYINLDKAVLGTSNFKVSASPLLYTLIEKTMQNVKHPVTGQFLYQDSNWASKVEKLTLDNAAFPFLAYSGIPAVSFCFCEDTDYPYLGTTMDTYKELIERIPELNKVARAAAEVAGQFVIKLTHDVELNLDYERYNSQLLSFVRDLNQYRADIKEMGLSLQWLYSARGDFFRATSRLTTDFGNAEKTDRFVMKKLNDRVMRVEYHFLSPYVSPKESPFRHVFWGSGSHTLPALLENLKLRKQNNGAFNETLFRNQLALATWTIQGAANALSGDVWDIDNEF

Regarding “OKT9 mIgG (known anti-TfR1 antibody, control)”, the Kd (usually the free concentration of one partner at which half of the binding sites on the other are occupied at equilibrium, for simple one-to-one binding) was 0.536 nM and the kon (in general, the second-order rate constant of association) was 774000 M⁻¹ s⁻¹.

The values above are taken from patent US20230117883A1.
